Measured values published in US20200199244A1 (published 2020).
Residue numbers refer to the chain shown, from its start.

B1: BMS3h-38-235 (other)
VH: EVQLLASGGGLVQPGGSLRLSCAASGFTFEEEEMIWVRQAPGKGLEWVSAISRNGYSTYYADSVKGRFTISRDNSKNTLYLQMNSLRAEDTAVYYCGKEPFRYDYWGQGTLVTVSS
B2: BMS3h-38-3 (other)
VH: B1 VH with V48I, R53G, N54S, Y56G, Y103F
B3: BMS3h-38-237 (other)
VH: B1 VH with N54G, Y56W
B4: BMS3h-38-238 (other)
VH: B1 VH with N54S
B5: BMS3h-41-1 (other)
VH: EVQLLESGEGLVQPGGSLRLSCAASGFTFTEHEMIWVRQAPGKGLEWVSSISGNGANTYYADSVKGRFTISRDNSKNTLYLQMNSLRPEDTAVYYCAKEPLRFDYWGQGTLVTVSS
B6: BMS3h-41-9 (other)
VH: B5 VH with S7P, E9G, H32Y, Q39K, L45M, Y105D
B7: BMS3h-41-13 (other)
VH: B5 VH with G8A, E9G, T30A, H32Y, P88A, T110A
B8: BMS3h-41-2 (other)
VH: B5 VH with E9G, F27S, H32Y, V48I, P88A, Y95F, W106R
B9: BMS3h-43-1 (other)
VH: EVQLLESGGGLVQPGGSLRLSCTASGFTFNMYEMSWVRQAPGKGLEWVSGISRRGFTTYYADSVKGRFTISRDNSKNTLYLQMNSLRAEDTAVYYCAKEPITYDLRYARFDYSGQGTLVTVSS
B10: BMS3h-43-11 (other)
VH: B9 VH with Q39K, R54H, L105M, S113W
B11: BMS3h-43-3 (other)
VH: B9 VH with S75F, L105M, S113G
B12: BMS3h-43-5 (other)
VH: B9 VH with M31T, S52G
B13: BMS3h-56-1 (other)
VH: EVQLLESGGGLVQPGGSLRLSCAASGFTFRDYEMWWVRQAPGKGLERVSAINPQGTRTYYADSVKGRFTISRDNSKNTLYLQMNSLRAEDTAVYYCAKLPFTFEDWGQGTLVTVSS
B14: BMS3h-56-265 (other)
VH: B13 VH with F101Q, T102L, E104Q
B15: BMS3h-56-246 (other)
VH: B13 VH with Q54W, R57L
B16: BMS3h-56-239 (other)
VH: B13 VH with Q54W, T56S, R57L, E104D
B17: BMS3h-56-224 (other)
VH: B13 VH with Q54W, T56Q, R57L
B18: BMS3h-56-217 (other)
VH: B13 VH with Q54W, T56S, R57L
B19: BMS3h-56-206 (other)
VH: B13 VH with Y95H, F101M, T102F, S116N
B20: BMS3h-56-262 (other)
VH: B13 VH with F101Q, T102L, E104H, W106R
B21: BMS3h-56-215 (other)
VH: B13 VH with Q54H, T56S, R57L, E104D
B22: BMS3h-56-248 (other)
VH: B13 VH with Q54Y, T56N, R57L, E104D
B23: BMS3h-56-7 (other)
VH: B13 VH with A92S, Y95H, L99P, T102I, E104G, Q108P
B24: BMS3h-56-243 (other)
VH: B13 VH with Q54W, T56G, R57F
B25: BMS3h-56-6 (other)
VH: B13 VH with T28S, V37Y, T102I, E104D, D105N, W106R
B26: BMS3h-56-203 (other)
VH: B13 VH with T102F, D105E
B27: BMS3h-56-270 (other)
VH: B13 VH with F101T, T102L, E104Q
B28: BMS3h-56-258 (other)
VH: B13 VH with T102Y, E104H, D105E
B29: BMS3h-56-232 (other)
VH: B13 VH with Q54W, T56S, R57H, E104D
B30: BMS3h-56-2 (other)
VH: B13 VH with E104D
B31: BMS3h-56-266 (other)
VH: B13 VH with T102F, E104H, D105E
B32: BMS3h-56-261 (other)
VH: B13 VH with T102F, E104Q, D105E
B33: BMS3h-56-269 (other)
VH: B13 VH with T102R, E104S, W106R
B34: BMS3h-56-244 (other)
VH: B13 VH with Q54W, T56G, R57L, E104D
B35: BMS3h-56-202 (other)
VH: B13 VH with F101T, T102Y, E104S, W106R
B36: BMS3h-56-201 (other)
VH: B13 VH with T102Y, E104Q, D105E
B37: BMS3h-56-253 (other)
VH: B13 VH with Q54A, T56G, R57Y, Y95H

The binders below were run against human CD40 (human, UniProt P25942 21-277) (assay: cell-based or functional assay).
Sequence of human CD40 (P25942 21-277 limits assumed): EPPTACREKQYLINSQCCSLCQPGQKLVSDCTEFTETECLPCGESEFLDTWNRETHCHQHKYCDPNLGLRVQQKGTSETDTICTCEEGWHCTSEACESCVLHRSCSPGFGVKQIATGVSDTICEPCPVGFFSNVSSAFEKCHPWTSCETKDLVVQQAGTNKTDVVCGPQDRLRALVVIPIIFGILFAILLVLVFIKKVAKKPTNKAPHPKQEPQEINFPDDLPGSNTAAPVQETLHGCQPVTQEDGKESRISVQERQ

hIZCD40L-driven Human B Cell Proliferation EC50 [nM]	CHO-hCD40L-driven DC Activation IL-12 EC50 [nM]	CHO-hCD40L-driven Human B Cell Proliferation EC50 [nM]	T-B cell MLR EC50 [nM]	Binder
0.4	–	–	–	B1
10	–	–	–	B2
0.4	–	–	–	B3
0.7	–	–	–	B4
104	–	–	–	B5
148	–	–	–	B6
208	–	–	–	B7
47	–	–	–	B8
53	–	–	–	B9
30	–	–	–	B10
87	–	–	–	B11
180	–	–	–	B12
7	–	–	–	B13
0.36	–	–	–	B14
0.24	23.2	34	23.8	B15
0.11	5.8	18	13.5	B16
0.5	18	26	47	B17
0.1	9.4	13	16	B18
0.1	0.7	6	5.25	B19

hIZCD40L-driven Human B Cell Proliferation EC50 [nM]	CHO-hCD40L-driven DC Activation IL-12 EC50 [nM]	CHO-hCD40L-driven Human B Cell Proliferation EC50 [nM]	T-B cell MLR EC50 [nM]	Binder
0.31	–	–	–	B20
0.2	11	41	31	B21
0.36	–	–	–	B22
8	–	–	–	B23
0.15	8.8	13.5	14.2	B24
4	–	–	–	B25
0.45	3.7	51	52	B26
0.31	–	–	–	B27
0.079	1.52	11	8.7	B28
0.27	7.3	37	42	B29
3	–	326	276	B30
0.19	2.8	19.5	13.8	B31
0.17	3	25.5	17	B32
0.14	1.8	15	9.7	B33
0.17	12.6	26	21	B34
0.6	2.9	39	50	B35
0.12	0.93	11	7.25	B36
0.4	–	–	–	B37
